Test results from publication PMC12216052 (Nature Communications, 2025).

Biological target: T1, Notch1(EGF1-36) (amino acids 20-1426) (human, UniProt P46531 20-1426, biotin, chemically at the N-terminus (EZ-Link Sulfo-NHS-Biotin))
T1 construct: NOTCH1, human, EGF1-36, amino acids 20-1426; also called NOTCH1 ECD; source: Tni insect cells (baculovirus), purified (nickel chromatography with 1 mM calcium, SEC), chemically biotinylated
Test: SPR; ~300 RU biotinylated NOTCH1(EGF1-36) on a streptavidin chip; DLL4(N-5) or DLK1 ECD as analyte; HBS-P20-BSA with 1 mM CaCl2; reference: ZNRF3 ECD
Details: both partners purified

B1: Human DLL4 (N-EGF5, amino acids 27-400) (domain or fragment, UniProt Q9NR61 27-400, looked up)
chain: SGVFQLQLQEFINERGVLASGRPCEPGCRTFFRVCLKHFQAVVSPGPCTFGTVSTPVLGTNSFAVRDDSSGGGRNPLQLPFNFTWPGTFSLIIEAWHAPGDDLRPEALPPDALISKIAIQGSLAVGQNWLLDEQTSTLTRLRYSYRVICSDNYYGDNCSRLCKKRNDHFGHYVCQPDGNLSCLPGWTGEYCQQPICLSGCHEQNGYCSKPAECLCRPGWQGRLCNECIPHNGCRHGTCSTPWQCTCDEGWGGLFCDQDLNYCTHHSPCKNGATCSNSGQRSYTCTCRPGYTGVDCELELSECDSNPCRNGGSCKDQEDGYHCLCPPGYYGLHCEHSTLSCADSPCFNGGSCRERNQGANYACECPPNFTGSNCE
notes: Delta-like 4 (DLL4), human, N-EGF5, amino acids 27-400; also called DLL4(N-5); source: Tni insect cells (baculovirus), purified (nickel chromatography, SEC)
  binding result: binds
